Results taken from IntAct's records for PubMed 37100772.

B1: Nucleoprotein (Human coronavirus 229E), P15130 (parent)
chain: MATVKWADASEPQRGRQGRIPYSLYSPLLVDSEQPWKVIPRNLVPINKKDKNKLIGYWNVQKRFRTRKGKRVDLSPKLHFYYLGTGPHKDAKFRERVEGVVWVAVDGAKTEPTGYGVRRKNSEPEIPHFNQKLPNGVTVVEEPDSRAPSRSQSRSQSRGRGESKPQSRNPSSDRNHNSQDDIMKAVAAALKSLGFDKPQEKDKKSAKTGTPKPSRNQSPASSQTSAKSLARSQSSETKEQKHEMQKPRWKRQPNDDVTSNVTQCFGPRDLDHNFGSAGVVANGVKAKGYPQFAELVPSTAAMLFDSHIVSKESGNTVVLTFTTRVTVPKDHPHLGKFLEELNAFTREMQQHPLLNPSALEFNPSQTSPATAEPVRDEVSIETDIIDEVN

Variants of: B1
Conditions: with pabp1_human PABPC1, P11940
Sequence of pabp1_human PABPC1, P11940 (P11940 whole entry): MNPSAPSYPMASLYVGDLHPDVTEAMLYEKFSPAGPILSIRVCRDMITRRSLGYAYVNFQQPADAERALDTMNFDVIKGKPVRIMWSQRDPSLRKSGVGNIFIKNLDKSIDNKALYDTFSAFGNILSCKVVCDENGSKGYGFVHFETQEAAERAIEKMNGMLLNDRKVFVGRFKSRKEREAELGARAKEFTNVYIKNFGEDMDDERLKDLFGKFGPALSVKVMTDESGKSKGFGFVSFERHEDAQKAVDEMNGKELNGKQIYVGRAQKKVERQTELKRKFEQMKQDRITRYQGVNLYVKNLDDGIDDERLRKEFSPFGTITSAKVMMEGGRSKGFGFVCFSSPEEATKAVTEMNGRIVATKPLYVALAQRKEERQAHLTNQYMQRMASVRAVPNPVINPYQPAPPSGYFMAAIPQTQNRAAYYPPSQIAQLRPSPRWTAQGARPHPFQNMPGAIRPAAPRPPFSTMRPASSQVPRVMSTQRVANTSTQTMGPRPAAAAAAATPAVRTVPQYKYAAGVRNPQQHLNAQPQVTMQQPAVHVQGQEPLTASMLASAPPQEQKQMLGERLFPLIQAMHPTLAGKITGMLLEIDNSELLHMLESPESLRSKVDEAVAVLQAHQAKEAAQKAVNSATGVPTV

Row | Variant | effect of a mutation on the interaction
1 | L354A;N355G;P356G;A358G;F361A;N362A;P363G | disrupting interaction strength
